In the test the target is Rubisco activase (Arabidopsis thaliana) (UniProt P10896). Nature of the test: GFP-bead immunoprecipitation of PRL-1-eGFP from Arabidopsis leaves, mass spectrometry (IPMS); interaction direct or indirect.
Chain of UniProt P10896 (P10896 59-474 limits assumed): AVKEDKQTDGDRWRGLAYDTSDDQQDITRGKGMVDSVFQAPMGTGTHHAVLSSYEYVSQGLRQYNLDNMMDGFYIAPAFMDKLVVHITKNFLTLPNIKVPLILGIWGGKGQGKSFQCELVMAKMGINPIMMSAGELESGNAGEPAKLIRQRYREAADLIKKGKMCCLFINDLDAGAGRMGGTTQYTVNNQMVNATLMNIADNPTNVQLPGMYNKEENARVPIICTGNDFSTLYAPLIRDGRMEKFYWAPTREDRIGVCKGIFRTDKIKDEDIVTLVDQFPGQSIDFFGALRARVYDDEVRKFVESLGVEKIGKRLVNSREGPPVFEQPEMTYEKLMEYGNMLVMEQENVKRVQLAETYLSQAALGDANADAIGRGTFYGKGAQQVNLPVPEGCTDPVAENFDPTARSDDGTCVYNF

In the case of “PRL-1-eGFP (C-terminal GFP fusion with PRL-1, ribulose bisphosphate carboxylase/oxygenase large subunit-related, Potri.012G062600)”, the fold abundance in the dark versus light (co-precipitated protein) amounted to 4 fold.

These data come from patent publication US20240401071A1.
